# Measurements reported in IntAct's records for PubMed 23956175.
# B1: Protein disulfide isomerase Creld2 (Mus musculus), Q9CYA0 (parent)
# chain: MHLLLAAAFGLLLLLPPPGAVASRKPTMCQRCRTLVDKFNQGMANTARKNFGGGNTAWEEKTLSKYEFSEIRLLEIMEGLCDSSDFECNQLLEQQEEQLEAWWQTLKKEHPNLFEWFCVHTLKACCLPGTYGPDCQECQGGSERPCSGNGYCSGDGSRQGDGSCQCHTGYKGPLCIDCTDGFFSLQRNETHSICSACDESCKTCSGPSNKDCIQCEVGWARVEDACVDVDECAAETSPCSDGQYCENVNGSYTCEDCDSTCVGCTGKGPANCKECIAGYTKESGQCTDIDECSLEEKACKRKNENCYNVPGSFVCVCPEGFEETEDACVQTAEGKVTEENPTQPPSREDL
# partner: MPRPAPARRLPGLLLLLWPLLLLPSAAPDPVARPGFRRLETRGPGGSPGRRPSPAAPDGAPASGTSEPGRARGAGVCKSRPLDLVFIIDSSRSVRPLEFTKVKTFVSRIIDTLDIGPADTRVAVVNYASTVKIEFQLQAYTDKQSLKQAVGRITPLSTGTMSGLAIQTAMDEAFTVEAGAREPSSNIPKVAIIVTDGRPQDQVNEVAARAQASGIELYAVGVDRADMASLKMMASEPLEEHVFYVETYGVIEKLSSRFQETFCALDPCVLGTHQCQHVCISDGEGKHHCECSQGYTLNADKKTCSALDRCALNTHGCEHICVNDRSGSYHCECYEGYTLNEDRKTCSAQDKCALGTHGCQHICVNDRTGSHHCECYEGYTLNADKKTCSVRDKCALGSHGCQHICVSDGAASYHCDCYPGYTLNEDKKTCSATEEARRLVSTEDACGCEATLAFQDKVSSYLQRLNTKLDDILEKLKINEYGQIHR
# Variants of: B1
# Conditions: with matn3_human MATN3, O15232
row,Variant,effect of a mutation on the interaction
1,MHLLLAAAFGLLLLLPPPGAVASRKPTMCQRARTLVDKFNQGMANTARKNFGGGNTAWEEKTLSKYEFSEIRLLEIMEGLCDSSDFECNQLLEQQEEQLEAWWQTLKKEHPNLFEWFCVHTLKACCLPGTYGPDCQECQGGSERPCSGNGYCSGDGSRQGDGSCQCHTGYKGPLCIDCTDGFFSLQRNETHSICSACDESCKTCSGPSNKDCIQCEVGWARVEDACVDVDECAAETSPCSDGQYCENVNGSYTCEDCDSTCVGCTGKGPANCKECIAGYTKESGQCTDIDECSLEEKACKRKNENCYNVPGSFVCVCPEGFEETEDACVQTAEGKVTEENPTQPPSREDL [C32A],causing an interaction
